From patent publication US20240116985A1 (published 2024)
Starred links: 1 amine or outer side, 2 acyl side, 3 side chain; linkers in the order of their positions; H or OH if unused. Positions of bridges follow the written chain, without caps; N, C: chain ends. Non-standard residues stand in square brackets, D forms with d. Primed or numbered codes have the meaning given here. PyrS2″ = (S)-3-amino-1-((pent-4-en-1-yloxy)carbonyl)pyrrolidine-3-carboxylic acid (stapling residue), C=CCCCOC(=O)N1CC[C@@](N[*:1])(C(=O)[*:2])C1; B5(32) = 2-amino-2-(pent-4-en-1-yl)hept-6-enoic acid (bis-4-pentenylglycine, two alkene side chains), C=CCCCC(CCCC=C)(N[*:1])C(=O)[*:2]; B5(4) = 2,2-bis(4-pentenyl)glycine = 2-amino-2-(pent-4-en-1-yl)hept-6-enoic acid (stitching residue), C=CCCCC(CCCC=C)(N[*:1])C(=O)[*:2]; PyrS2 = (S)-3-amino-1-((pent-4-en-1-yloxy)carbonyl)pyrrolidine-3-carboxylic acid, C=CCCCOC(=O)N1CC[C@@](N[*:1])(C(=O)[*:2])C1; B5(19) = 2-amino-2-(pent-4-en-1-yl)hept-6-enoic acid (bis(4-pentenyl)glycine), C=CCCCC(CCCC=C)(N[*:1])C(=O)[*:2]; 3Br4FF = (S)-2-amino-3-(3-bromo-4-fluorophenyl)propanoic acid, O=C([C@H](Cc1ccc(F)c(Br)c1)N[*:1])[*:2]; 7F1NapA = 3-(7-fluoronaphthalen-1-yl)-L-alanine, O=C([C@H](Cc1cccc2ccc(F)cc12)N[*:1])[*:2]; B5(3) = 2,2-bis(4-pentenyl)glycine (stitching residue), C=CCCCC(CCCC=C)(N[*:1])C(=O)[*:2]; B5(28) = 2,2-bis(4-pentenyl)glycine, C=CCCCC(CCCC=C)(N[*:1])C(=O)[*:2]; Phe(3-CF3) = N[C@@H](Cc1cccc(C(F)(F)F)c1)C(=O)O; Phe(3-COOH) = N[C@@H](Cc1cccc(C(=O)O)c1)C(=O)O; Phe(2-CF3) = N[C@@H](Cc1ccccc1C(F)(F)F)C(=O)O; Phe(3,4-Me2) = Cc1ccc(C[C@H](N)C(=O)O)cc1C; Phe(3-F) = N[C@@H](Cc1cccc(F)c1)C(=O)O; Bta = N[C@@H](Cc1csc2ccccc12)C(=O)O; αAllylPro = C=CC[C@@]1(C(=O)O)CCCN1; tBuAla = CC(C)(C)C[C@H](N)C(=O)O; 3Thi = N[C@@H](Cc1ccsc1)C(=O)O; S8 = C=CCCCCCC[C@](C)(N)C(=O)O; PyrS2(4) = not defined here; Aib = CC(C)(N)C(=O)O

T1: B-cat-Halo (UniProt P35222 1-781)
T1 sequence (looked up): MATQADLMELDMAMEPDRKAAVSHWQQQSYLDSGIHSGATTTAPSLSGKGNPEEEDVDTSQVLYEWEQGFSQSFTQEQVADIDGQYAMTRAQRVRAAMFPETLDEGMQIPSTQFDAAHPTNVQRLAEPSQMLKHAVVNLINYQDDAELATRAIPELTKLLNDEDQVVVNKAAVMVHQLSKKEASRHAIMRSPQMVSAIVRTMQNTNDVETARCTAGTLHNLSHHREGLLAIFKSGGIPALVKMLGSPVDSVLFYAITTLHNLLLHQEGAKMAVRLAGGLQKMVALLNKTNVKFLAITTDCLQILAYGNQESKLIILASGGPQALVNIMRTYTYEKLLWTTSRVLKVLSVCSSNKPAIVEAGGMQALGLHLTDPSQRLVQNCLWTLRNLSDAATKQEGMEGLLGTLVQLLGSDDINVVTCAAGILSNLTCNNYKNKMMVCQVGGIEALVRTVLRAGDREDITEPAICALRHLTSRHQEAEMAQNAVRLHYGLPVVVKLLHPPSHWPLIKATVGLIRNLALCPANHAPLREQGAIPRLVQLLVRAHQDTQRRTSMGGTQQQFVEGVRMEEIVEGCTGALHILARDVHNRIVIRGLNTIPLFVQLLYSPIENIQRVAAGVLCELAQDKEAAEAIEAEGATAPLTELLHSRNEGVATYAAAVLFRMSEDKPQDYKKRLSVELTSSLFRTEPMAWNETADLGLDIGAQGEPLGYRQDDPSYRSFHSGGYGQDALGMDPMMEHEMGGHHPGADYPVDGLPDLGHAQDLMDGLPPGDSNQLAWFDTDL

T2: full-length beta-Catenin (Uniprot ID P35222) (Homo sapiens (Human), UniProt P35222 1-781)
T2 construct: also called bCat; B-Catenin
T2 sequence: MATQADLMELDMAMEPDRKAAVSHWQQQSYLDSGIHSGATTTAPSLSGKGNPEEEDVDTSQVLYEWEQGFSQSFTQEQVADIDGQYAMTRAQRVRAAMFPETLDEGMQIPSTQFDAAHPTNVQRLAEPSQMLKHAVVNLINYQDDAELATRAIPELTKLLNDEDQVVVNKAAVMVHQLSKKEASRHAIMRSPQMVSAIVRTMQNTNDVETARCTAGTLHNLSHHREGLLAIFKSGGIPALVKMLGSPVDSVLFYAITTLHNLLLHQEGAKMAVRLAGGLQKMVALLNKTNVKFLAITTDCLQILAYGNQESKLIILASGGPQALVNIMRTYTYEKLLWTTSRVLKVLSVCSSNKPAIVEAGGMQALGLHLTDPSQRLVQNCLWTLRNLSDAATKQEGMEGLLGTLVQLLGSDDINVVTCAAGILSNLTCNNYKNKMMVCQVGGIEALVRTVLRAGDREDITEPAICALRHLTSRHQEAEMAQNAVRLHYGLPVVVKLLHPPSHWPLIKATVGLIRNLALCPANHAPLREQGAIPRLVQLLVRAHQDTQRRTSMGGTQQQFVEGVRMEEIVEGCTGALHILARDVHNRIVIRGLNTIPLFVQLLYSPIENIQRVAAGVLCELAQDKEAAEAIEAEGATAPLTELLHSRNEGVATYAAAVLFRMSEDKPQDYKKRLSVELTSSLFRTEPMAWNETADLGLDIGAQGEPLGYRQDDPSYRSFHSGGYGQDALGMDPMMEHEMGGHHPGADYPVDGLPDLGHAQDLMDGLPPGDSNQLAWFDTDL

B1: I-2268 (peptide)
peptide: Ac-[αAllylPro]D[tBuAla][B5(3)]D[Phe(3-COOH)]AAFL[PyrS2(4)][3Thi][Bta]NAAAAA-NH2
modifications: staple 1-4, 4-11; reading uncertain; also: printed as Ac-PL3-Asp-Npg-B5-Asp-3COOHF-Ala-Ala-Phe-Leu-PyrS2-3Thi-BztA-Asn-Ala-Ala-Ala-Ala-Ala-NH2
B2: I-2271 (peptide)
peptide: Ac-[αAllylPro]D[tBuAla][B5(3)]D[Phe(3-COOH)]AAFL[PyrS2(4)][3Thi][Bta]NA[Aib]A-NH2
modifications: staple 1-4, 4-11; reading uncertain; also: printed as Ac-PL3-Asp-Npg-B5-Asp-3COOHF-Ala-Ala-Phe-Leu-PyrS2-3Thi-BztA-Asn-Ala-Aib-Ala-NH2
B3: I-368 (peptide)
peptide: Ac-[αAllylPro]DA[B5(19)]DDAAFV[S8]F[7F1NapA]Q-NH2
modifications: staple 1-4, 4-11
notes: Stapled peptide composition (olefin metathesis)
B4: I-362 (peptide)
peptide: Ac-[αAllylPro]DA[B5(19)]DDAAFA[S8]H[Bta]Q-NH2
modifications: staple 1-4, 4-11
notes: as for B3
B5: I-371 (peptide)
peptide: Ac-[αAllylPro]DA[B5(19)]DDAAFA[S8][Phe(3-F)][Bta]Q-NH2
modifications: staple 1-4, 4-11
notes: as for B3
B6: I-372 (peptide)
peptide: Ac-[αAllylPro]DA[B5(4)]DEAAFA[S8][Phe(3-F)][Bta]Q-NH2
modifications: staple 1-4, 4-11
notes: as for B3
B7: I-374 (peptide)
peptide: Ac-[αAllylPro]DA[B5(4)]DDAA[Phe(3-CF3)]A[S8]F[Bta]Q-NH2
modifications: staple 1-4, 4-11; not fully specified; printed as Ac-PL3-Asp-Ala-B5-Asp-Asp-Ala-Ala-3F3MeF-Ala-S8-Phe-BztA-Gln-NH2
notes: Stapled peptide
B8: I-375 (peptide)
peptide: Ac-[αAllylPro]DA[B5(4)]DDAA[Phe(3-CF3)]A[S8]F[Bta]Q-NH2
modifications: staple 1-4, 4-11; not fully specified; printed as Ac-PL3-Asp-Ala-B5-Asp-Asp-Ala-Ala-3F3MeF-Ala-S8-Phe-BztA-Gln-NH2
notes: Stapled peptide

Biological target: T1, B-cat-Halo
Test: cell-based or functional assay

Binder	NanoBRET Abs IC50 [µM]
B1	3.1
Ac-[αAllylPro]D[tBuAla][B5(3)]D[Phe(3-COOH)]AAFL[PyrS2″][3Thi][Bta]NAAAAAAA-NH2 (staple 1-4, 4-11) [I-2269]	2.3
B2	2.3
Ac-[αAllylPro]D[tBuAla][B5(3)]D[Phe(3-COOH)]AAFL[PyrS2″][3Thi][Bta]NA[Aib]A[Aib]A-NH2 (staple 1-4, 4-11) [I-2272]	3
Ac-[αAllylPro]D[tBuAla][B5(3)]D[Phe(3-COOH)]AAFL[PyrS2″][3Thi][Bta]NA[Aib]A[Aib]A[Aib]A-NH2 (staple 1-4, 4-11) [I-2273]	6.2
Ac-[αAllylPro]D[tBuAla][B5(3)]D[Phe(3-COOH)]AAFL[PyrS2″][3Thi][Bta]NL-NH2 (staple 1-4, 4-11) [I-2274]	2
Ac-[αAllylPro]D[tBuAla][B5(32)]D[Phe(3-COOH)]AAFL[PyrS2][3Thi][Bta]NLLL-NH2 (staple 1-4, 4-11; also: earlier eluting staple isomer (HPLC peak)) [I-2275]	3.5
Ac-[αAllylPro]D[tBuAla][B5(32)]D[Phe(3-COOH)]AAFL[PyrS2][3Thi][Bta]NALL-NH2 (staple 1-4, 4-11; also: earlier eluting staple isomer) [I-2277]	2.3
Ac-[αAllylPro]D[tBuAla][B5(32)]D[Phe(3-COOH)]AAFL[PyrS2][3Thi][Bta]NALL-NH2 (staple 1-4, 4-11; also: later eluting staple isomer) [I-2278]	2.8
Ac-[αAllylPro]D[tBuAla][B5(32)]D[Phe(3-COOH)]AAFL[PyrS2][3Thi][Bta]NLLLLL-NH2 (staple 1-4, 4-11; also: earlier eluting staple isomer) [I-2279]	> 20
Ac-[αAllylPro]D[tBuAla][B5(4)]D[Phe(3-COOH)]AAFL[PyrS2][3Thi][Bta]NALALA-NH2 (staple 1-4, 4-11; also: earlier eluting staple isomer) [I-2281]	4.3
Ac-[αAllylPro]D[tBuAla][B5(4)]D[Phe(3-COOH)]AAFL[PyrS2][3Thi][Bta]NALALA-NH2 (staple 1-4, 4-11; also: later eluting staple isomer) [I-2282]	3.7
Ac-[αAllylPro]D[tBuAla][B5(4)]D[Phe(3-COOH)]AAFL[PyrS2][3Thi][Bta]NALALALA-NH2 (staple 1-4, 4-11; also: earlier eluting staple isomer) [I-2283]	4.5
Ac-[αAllylPro]D[tBuAla][B5(4)]D[Phe(3-COOH)]AAFL[PyrS2][3Thi][Bta]NALALALA-NH2 (staple 1-4, 4-11; also: later eluting staple isomer) [I-2284]	12.9
Ac-[αAllylPro]D[tBuAla][B5(4)]D[Phe(3-COOH)]AAFL[PyrS2][3Thi][3Br4FF]Q-NH2 (staple 1-4, 4-11) [I-2287]	7.1
Ac-[αAllylPro]D[tBuAla][B5(4)]D[Phe(3-COOH)]QAFV[PyrS2][3Thi][3Br4FF]A-NH2 (staple 1-4, 4-11) [I-2288]	6.7
Ac-[αAllylPro]D[tBuAla][B5(4)]D[Phe(3-COOH)]AAFL[PyrS2][Phe(2-CF3)][3Br4FF]S-NH2 (staple 1-4, 4-11) [I-2289]	9
Ac-[αAllylPro]D[tBuAla][B5(4)]D[Phe(3-COOH)]QAFL[PyrS2][Phe(2-CF3)][3Br4FF]A-NH2 (staple 1-4, 4-11) [I-2290]	7.9
Ac-[αAllylPro]D[tBuAla][B5(4)]D[Phe(3-COOH)]AAFL[PyrS2][3Thi][Phe(3,4-Me2)]Q-NH2 (staple 1-4, 4-11) [I-2291]	4.9
Ac-[αAllylPro]D[tBuAla][B5(28)]D[Phe(3-COOH)]QAFV[PyrS2][3Thi][34MeF]A-NH2 (staple 1-4, 4-11) [I-2292]	2.7
Ac-[αAllylPro]D[tBuAla][B5(4)]D[Phe(3-COOH)]AAFL[PyrS2][Phe(2-CF3)][Phe(3,4-Me2)]S-NH2 (staple 1-4, 4-11) [I-2293]	5.7

Biological target: T2, full-length beta-Catenin (Uniprot ID …)
Test: fluorescence polarization competition; 10 nM full-length beta-catenin, competitor 10 nM 5FAM-TCF4(10-53)
Protocol: The plate was incubated protected from light for 60 minutes at 20° C. prior to read. Reads were performed on a CLARIOstar plate reader (BMG Labtech) in duplicate, and data were fitted to a 1:1 binding model with hill slope using an in-house script. All provided concentrations are final concentrations.

Binder	EC50 [µM]
B3	5
B4	3.66
Ac-[αAllylPro]DA[B5(19)]DDAAHA[S8]F[Bta]Q-NH2 (staple 1-4, 4-11; also: earlier eluting HPLC staple isomer, Stapled peptide) [I-363]	5
Ac-[αAllylPro]DA[B5(19)]DDAAHA[S8]F[Bta]Q-NH2 (staple 1-4, 4-11; also: later eluting HPLC staple isomer, Stapled peptide) [I-364]	5
B5	1.39
B6	2.09
B7	3.01
B8	3.01
